This experiment deals with T1, human PD-1 expressed on cells (CHO TREX human PD1 cell line, full-length human PD-1 sequence) (human, UniProt Q15116 21-288).
T1 construct: Also used for human PD-1 on Jurkat reporter cells, on PathHunter cells and on PHA-stimulated human CD4+ T cells; also called CHO human PD1 cells; CHO human PD-1 cells
Briefly: epitope competition assay on CHO human PD1 cells (labelled VH 1.51a, 1.57b or 1.1a, not specified) after 0 days in human serum.

This note sets out measurements from patent US20220306744A1 (CRESCENDO BIOLOGICS, published 2022).

T1 sequence (Q15116 21-288): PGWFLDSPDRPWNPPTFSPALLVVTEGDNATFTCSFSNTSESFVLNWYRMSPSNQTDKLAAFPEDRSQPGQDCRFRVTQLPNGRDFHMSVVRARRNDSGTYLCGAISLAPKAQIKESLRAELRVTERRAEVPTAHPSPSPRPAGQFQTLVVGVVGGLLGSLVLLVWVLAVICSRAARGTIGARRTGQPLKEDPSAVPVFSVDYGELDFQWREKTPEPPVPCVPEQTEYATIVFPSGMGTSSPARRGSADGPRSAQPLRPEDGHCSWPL

B1: 1.92b-4GS-1.39a (other)
chain: EVQLVESGGGLVKPGGSLRLSCAASGFTFSDESMTWMRQAPGKGLEWVSYISSGGGVKFYADSVKGRFTISRDNAKNSLYLQMNSLRAEDTAVYYCAREAPLRLGESPHDAFDISGQGTMVTVSSGGGGSGGGGSGGGGSGGGGSEVQLVESGGGLVQPGRSLRLSCAASGFTFDDYALHWVRQAPGKDLEWVSGISWNGGSYGYADSVKGRFTISRDNAKNSLYLQMNSLRAEDTALYYCVREKGPGLTGSTADYYGLDAWGQGTMVTVSS
notes: Biparatopic VH-linker-VH; built from its parts here because it is not clear whether 1112 is the protein or the nucleic acid
In turn, B1 returned an IC50 of 0.9 nM. That is a sub-nanomolar value.

In general, IC50 refers to the midpoint of a concentration-inhibition curve.
